Results reported in patent publication US20100323443A1 (BIOLAMINA, published 2010).

Key:
[1] = molecular target: β1-integrin on mouse embryonic stem cells (mouse) (UniProt P09055); assay: cell-based or functional assay
[2] = molecular target: T1, human recombinant laminin-511 (human, UniProt O15230 36-3695; P07942 22-1786; P11047 34-1609); assay: summary of the adhesion-blocking assays
T1 construct: Coated on plates (30 ug/ml) in the adhesion assays; also called laminin-10
Procedure: Attachment assay was performed as described ([Extracellular Matrix Protocols, 2000). Briefly, MaxiSorp 96-well plates (Nunc) coated by extracellular matrix proteins as described above and blocked by 1% heat-denatured BSA solution. Undifferentiated embryonic cells were plated at cell density of 800 cell/mm² upon extracellular matrix-coated plates and were left to adhere for 1 hour at 37° C. Non-adherent cells were washed away, and adherent cells were fixed for 20 min by 5% glutaraldehyde, stained by 0.1% Crystal Violet.
Adhesion-blocking assays were performed as described previously. […] Non-attached cells were removed and the remaining cells were fixed, stained and quantified as described above (Cell adhesion assay). Error bars show standard error (SEM).

| Blocking those integrins inhibits ES cell adhesion to LN-511 [1] [%] | binding result [2] | Molecule |
| --- | --- | --- |
| 100 | – | human recombinant laminin-511, O15230 36-3695; P07942 22-1786; P11047 34-1609 |
| – | binds | α6β1 integrin on mouse embryonic stem cells (receptor, whole, on cells) chain 1: FNLDTREDNVIRKSGDPGSLFGFSLAMHWQLQPEDKRLLLVGAPRAEALPLQRANRTGGLYSCDITSRGPCTRIEFDNDADPMSESKEDQWMGVTVQSQGPGGKVVTCAHRYEKRQHVNTKQESRDIFGRCYVLSQNLRIEDDMDGGDWSFCDGRLRGHEKFGSCQQGVAATFTKDFHYIVFGAPGTYNWKGIVRVEQKNNTFFDMNIFEDGPYEVGGETDHDESLVPVPANSYLGFSLDSGKGIVSKDDITFVSGAPRANHSGAVVLLKRDMKSAHLLPEYIFDGEGLASSFGYDVAVVDLNADGWQDIVIGAPQYFDRDGEVGGAVYVYINQQGKWSNVKPIRLNGTKDSMFGISVKNIGDINQDGYPDIAVGAPYDDLGKVFIYHGSPTGIITKPTQVLEGTSPYFGYSIAGNMDLDRNSYPDLAVGSLSDSVTIFRSRPVINILKTITVTPNRIDLRQKSMCGSPSGICLKVKACFEYTAKPSGYNPPISILGILEAEKERRKSGLSSRVQFRNQGSEPKYTQELTLNRQKQRACMEETLWLQENIRDKLRPIPITASVEIQEPSSRRRVNSLPEVLPILNSNEAKTVQTDVHFLKEGCGDDNVCNSNLKLEYKFGTREGNQDKFSYLPIQKGIPELVLKDQKDIALEITVTNSPSDPRNPRKDGDDAHEAKLIATFPDTLTYSAYRELRAFPEKQLSCVANQNGSQADCELGNPFKRNSSVTFYLILSTTEVTFDTTDLDINLKLETTSNQDNLAPITAKAKVVIELLLSVSGVAKPSQVYFGGTVVGEQAMKSEDEVGSLIEYEFRVINLGKPLKNLGTATLNIQWPKEISNGKWLLYLMKVESKGLEQIVCEPHNEINYLKLKESHNSRKKRELPEKQIDDSRKFSLFPERKYQTLNCSVNVRCVNIRCPLRGLDSKASLVLRSRLWNSTFLEEYSKLNYLDILLRASIDVTAAAQNIKLPHAGTQVRVTVFPSKTVAQYSGVAWWIILLAVLAGILMLALLVFLLWKCGFFKRSRYDDSIPRYHAVRIRKEEREIKDEKHMDNLEKKQWITKWNENESYS chain 2: QTDKNRCLKANAKSCGECIQAGPNCGWCTNTTFLQEGMPTSARCDDLEALKKKGCQPSDIENPRGSQTIKKNKNVTNRSKGMAEKLRPEDITQIQPQQLLLKLRSGEPQKFTLKFKRAEDYPIDLYYLMDLSYSMKDDLENVKSLGTDLMNEMRRITSDFRIGFGSFVEKTVMPYISTTPAKLRNPCTSEQNCTSPFSYKNVLSLTDRGEFFNELVGQQRISGNLDSPEGGFDAIMQVAVCGSLIGWRNVTRLLVFSTDAGFHFAGDGKLGGIVLPNDGQCHLENNVYTMSHYYDYPSIAHLVQKLSENNIQTIFAVTEEFQPVYKELKNLIPKSAVGTLSGNSSNVIQLIIDAYNSLSSEVILENSKLPDGVTINYKSYCKNGVNGTGENGRKCSNISIGDEVQFEISITANKCPNKESETIKIKPLGFTEEVEVVLQFICKCNCQSHGIPASPKCHEGNGTFECGACRCNEGRVGRHCECSTDEVNSEDMDAYCRKENSSEICSNNGECVCGQCVCRKRDNTNEIYSGKFCECDNFNCDRSNGLICGGNGVCRCRVCECYPNYTGSACDCSLDTGPCLASNGQICNGRGICECGACKCTDPKFQGPTCETCQTCLGVCAEHKECVQCRAFNKGEKKDTCAQECSHFNLTKVESREKLPQPVQVDPVTHCKEKDIDDCWFYFTYSVNGNNEAIVHVVETPDCPTGPDIIPIVAGVVAGIVLIGLALLLIWKLLMIIHDRREFAKFEKEKMNAKWDTGENPIYKSAVTTVVNPKYEGK |
| – | binds | αVβ1 integrin on mouse embryonic stem cells (receptor, whole, on cells) chain 1: FNLDVESPAEYAGPEGSYFGFAVDFFEPSTSSRMFLLVGAPKANTTQPGIVEGGQVLKCECSSSRRCQPIEFDSTGNRDYAKDDPLEFKSHQWFGASVRSKQDKILACAPLYHWRTEMKQEREPVGTCFLQDGTKTVEYAPCRSKNIDADGQGFCQGGFSIDFTKADRVLLGGPGSFYWQGQLISDQVAEIISKYDPNVYSIKYNNQLATRTAQAIFDDSYLGYSVAVGDFNGDGIEDFVSGVPRAARTLGMVYIYDGKNMSSLHNFTGEQMAAYFGFSVAATDINGDDYADVFIGAPLFMDRGSDGKLQEVGQVSVSLQRAVGDFQTTKLNGFEVFARFGSAIAPLGDLDQDGFNDIAIAAPYGGEDKKGLVYIFNGRSTGLNSVPSQILEGQWAAQSMPPSFGYSMKGATDVDRNGYPDLVVGAFGVDRAVLYRARPVVTVNAGLEVYPSILNQDNKICPLPGTALKVSCFNVRFCLKADGKGTLPRKLHFQVELLLDKLKQKGAIRRALFLHNRSPVHSKTMTVFRGGQMQCEELVAYLRDESEFRDKLTPITIFMEYRLDQRTAADATGLQPILNQFTPANVSRQAHILLDCGEDNVCKPKLEVSVNSDQKKIYIGDDNPLTLTVKAQNQGEGAYEAELIVSIPPQADFIGVVRNNEALARLSCAFKTENQTRQVVCDLGNPMKAGTQLLAGLRFSVHQQSEMDTSVKFDLKIQSSNSFDNVSPVVSYKVDLAVLAAVEIRGVSSPDHIFLPIPNWEYKENPETEEDVGPIVQHIYELRNNGPSSFSKAILNLQWPYKYNNNTLLYILHYDIDGPMNCTADTEINPLRIKTPEKNDTAAAGQGERNHLITKRDLTLREGDVHTLGCGIAKCLQITCQVGRLDRGKSAILYVKSLLWTETFMNKENQNHSYSLKSSASFNIIEFPYKNLPIEDLFNSTLVTTNITWGIQPAPMPVPVWVIILAVLAGLLLLAVLVFVMYRMGFFKRVRPPQEEQEREQLQPHENGEGNSET chain 2: QTDKNRCLKANAKSCGECIQAGPNCGWCTNTTFLQEGMPTSARCDDLEALKKKGCQPSDIENPRGSQTIKKNKNVTNRSKGMAEKLRPEDITQIQPQQLLLKLRSGEPQKFTLKFKRAEDYPIDLYYLMDLSYSMKDDLENVKSLGTDLMNEMRRITSDFRIGFGSFVEKTVMPYISTTPAKLRNPCTSEQNCTSPFSYKNVLSLTDRGEFFNELVGQQRISGNLDSPEGGFDAIMQVAVCGSLIGWRNVTRLLVFSTDAGFHFAGDGKLGGIVLPNDGQCHLENNVYTMSHYYDYPSIAHLVQKLSENNIQTIFAVTEEFQPVYKELKNLIPKSAVGTLSGNSSNVIQLIIDAYNSLSSEVILENSKLPDGVTINYKSYCKNGVNGTGENGRKCSNISIGDEVQFEISITANKCPNKESETIKIKPLGFTEEVEVVLQFICKCNCQSHGIPASPKCHEGNGTFECGACRCNEGRVGRHCECSTDEVNSEDMDAYCRKENSSEICSNNGECVCGQCVCRKRDNTNEIYSGKFCECDNFNCDRSNGLICGGNGVCRCRVCECYPNYTGSACDCSLDTGPCLASNGQICNGRGICECGACKCTDPKFQGPTCETCQTCLGVCAEHKECVQCRAFNKGEKKDTCAQECSHFNLTKVESREKLPQPVQVDPVTHCKEKDIDDCWFYFTYSVNGNNEAIVHVVETPDCPTGPDIIPIVAGVVAGIVLIGLALLLIWKLLMIIHDRREFAKFEKEKMNAKWDTGENPIYKSAVTTVVNPKYEGK |
